In the assay the target is N‐10/C‐9 fusion PD (human). The assay is described as follows: SPR; PDs of BMP‐9, BMP‐10 and N‐10/C‐9 fusion PD immobilised at 450 RUs on a CM5 chip by amine coupling; BMP‐10 GF 0 to 80 nM, 1:2 serial dilutions, 1× HBS‐EP; 1:1 model with mass transfer; apparent KD = kd/ka.

B1: BMP‐10 GF (R&D Systems #2926‐BP‐025/CF) (ligand)
chain: NAKGNYCKRTPLYIDFKEIGWDSWIIAPPGYEAYECRGVCNYPLAEHLTPTKHAIIQALVHLKNSQKASKACCVPTKLEPISILYLDKGVVTYKFKYEGMAVSECGCR
In the case of B1, the Kd came out at 13.2 nM, the dissociation rate constant (koff) is 0.0032 s⁻¹ and the kon came to 220000 M⁻¹ s⁻¹.
